Results as given in patent publication US7470669B2, “Isolated polypeptide comprising a leptin fragment” (Serono Genetics Institute, S.A., priority 1999, dated 2008).

Columns and labels:
LSR α′ = target: T1, LSR α′ (Homo sapiens, UniProt Q86X29); experiment: 125I-leptin binding, uptake and degradation in CHO-K1 cells transfected with LSR α′; assay type: cell-based
T1 construct: The full-length LSR α, α′, and β clones were reconstructed in pTracer-CMV2 vector; expressed in transfected cells; host or cells: CHO-K1 (transient with Fugene)
T1 sequence (Q86X29 1-630 isoform Q86X29-4): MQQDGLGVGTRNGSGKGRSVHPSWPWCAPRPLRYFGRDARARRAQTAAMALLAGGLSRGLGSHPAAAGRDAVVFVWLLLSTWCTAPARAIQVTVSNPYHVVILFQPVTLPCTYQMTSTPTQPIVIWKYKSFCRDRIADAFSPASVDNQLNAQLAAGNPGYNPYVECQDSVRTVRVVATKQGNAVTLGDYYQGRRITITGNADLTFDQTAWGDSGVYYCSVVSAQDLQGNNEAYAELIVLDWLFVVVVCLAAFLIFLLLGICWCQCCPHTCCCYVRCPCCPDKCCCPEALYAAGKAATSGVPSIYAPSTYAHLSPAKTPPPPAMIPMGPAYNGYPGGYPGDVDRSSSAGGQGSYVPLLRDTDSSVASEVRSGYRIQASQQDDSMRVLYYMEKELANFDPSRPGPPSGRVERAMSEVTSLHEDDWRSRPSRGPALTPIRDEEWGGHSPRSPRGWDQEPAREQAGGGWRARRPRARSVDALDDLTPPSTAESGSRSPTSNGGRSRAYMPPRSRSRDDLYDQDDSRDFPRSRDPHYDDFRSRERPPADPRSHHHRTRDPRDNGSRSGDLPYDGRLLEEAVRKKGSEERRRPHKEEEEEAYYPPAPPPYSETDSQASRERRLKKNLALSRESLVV
Experimental: FIGS. 3A, 3B, 3C, and 3D show the effect of LSR subunit transfection on leptin binding and degradation in CHO-K1 cells. For FIG. 3A, CHO-K1 cells were transfected with increasing concentrations of the α, (□), α′ (▪) or β (◯) LSR plasmid, or vector alone (●) using Fugene transfection reagent. After 48 h, the cells were washed once in PBS and incubated at 37° C. for 2 h with 10 ng/mL of ^125I-leptin in DMEM containing 0.2% (w/v) BSA, 2 mM CaCl2 and 5 mM HEPES, pH 7.4 (Buffer A). The monolayers were washed and lysed with 0.1 N NaOH containing 0.24 mM EDTA, and the lysates were counted. The results are shown as the amount of cell-associated ^125I-leptin. For FIG. 3B, lysates were prepared from CHO-K1 wild type, stable transfectants of vector or LSR α′ subunit, and PLC, and separated on a 10% SDS-polyacrylamide gel under denaturing and reduced conditions. After transfer to nitrocellulose, Western blots were performed using anti-LSR 170 antibody (can also be done with the human equivalent, 93A). Northern blots were done to detect LSR mRNA in CHO-K1 wild-type versus PLC. RT-PCR analysis was also done in CHO-K1 as compared to PLC. For FIGS. 3C and 3D, confluent monolayers of stable-transfected cell lines expressing LSR α′ subunit (▪) or vector alone (●) were washed once in PBS and incubated at 37° C. for 2 h with increasing concentrations of ^125I-leptin in Buffer A. The amount of cell-associated (FIG. 3C) and degraded (FIG. 3D) ^125I-leptin was then measured as described herein. Results are shown as the mean of triplicate determinations.
CHO-K1 cells were plated at a density of 300,000 cells/36 mm dish the day before transfection. After 24 h, plasmid preincubated with Fugene transfection reagent was added to the cells, which were further incubated at 37° C. Cells were used 48 h after transfection as described in the Brief Description of the Figures.
Stable transfectants were prepared from CHO-K1 cells using Superfect according to the manufacturer's instructions. After introduction of the plasmid into the cell with Superfect, the cells were grown in the presence of 750 μg/mL zeocin. After elimination of untransfected cells, the antibiotic concentration was reduced to 500 μg/mL. Clones were isolated using cloning cylinders, and maintained in tissue culture media containing 100 μg/mL zeocin.
To determine which of the LSR subunits is responsible for leptin binding, CHO-K1 cells were transiently transfected with increasing concentrations of each of the 3 human LSR plasmids (FIG. 3A). CHO-K1 cells were selected because they had the lowest level of endogenous LSR expression of the different cell lines tested. This level is far lower than that of a human hepatocyte cell line (PLC) used to systematically characterize human LSR activity (FIG. 3B). […]

LSR = experiment: 125I-leptin degradation in PLC cells; assay type: cell-based, human; details: PLC cells, 2 h incubation
LSR mRNA = experiment: Northern blot of LSR mRNA in leptin-treated rat hepatocytes; assay type: cell-based; details: rat hepatocytes after 30 min leptin treatment
Experimental: Northern blots were performed as described previously using as a probe clone 18251 described above (Yen F. T., Masson M., Clossais-Besnard N., Andre P., Grosset J. M., Bougueleret L., Dumas J. B., Guerassimenko, O., and Bihain B. E. (1999). J Biol Chem 274, 13390-13398).

[1] = Plasma leptin concentration after subcutaneous leptin injection in ob/ob mice; assay type: in vivo, mouse; details: 50 ng s.c., at 2 h
Source text: Na ^125I was purchased from Amersham-Pharmacia (Piscataway, N.J.; Les Ulis, France). Oleic acid, bovine serum albumin (A2153) (BSA), were obtained from Sigma (St. Louis, Mo.; St. Quentin Fallavier, France). Sodium heparin was purchased from Choay laboratories (Gentilly, France). Fugene was purchased from Roche Boehringer Mannheim (Indianapolis, Ind.), and Superfect from Qiagen (Valencia, Calif.). Zeocin was obtained from Invitrogen (Carlsbad, Calif.). Suramin was a gift from Bayer Pharmaceuticals (Puteaux, France). Enzymatic kits for the determination of TG and FFA were obtained from Roche-Boehringer Mannheim (Meylan, France) and WAKO (Richmond, Va.; Unipath, Dardilly, France), respectively. Dulbecco's modified Eagle's medium (DMEM), trypsin, penicillin-streptomycin, glutamine, and fetal bovine serum (FBS) were purchased from Life Technologies, Inc (Grand Island, N.Y.; Eragny, France). RIA kits for plasma leptin measurements were obtained from Linco (St. Louis, Mo.). […]
This injection caused a transient increase in plasma leptin concentrations up to 3.25±0.03 ng/mL at 2 h; baseline values were recorded 4 h after injection. […]

Kd (LSR α′; CHO-K1 cells stably expressing LSR α′, Lineweaver-Burk transformation, read-out: estimated Kd of leptin binding): 1.3 nM
amount of 125I-leptin degraded as share of that bound and internalized by the cells (LSR α′; CHO-K1 cells transfected with LSR α′): 16%
Kd relative to that of the Ob-R (LSR α′; LSR α′ Kd versus Ob-R Kd): ~2 fold
binding of leptin to CHO-K1 cells (LSR α′; transient transfection with LSR α′ plasmid, 10 ng/mL 125I-leptin, 2 h 37° C.): increased
Substance: leptin: plasma protein of 16 kDa produced by adipocytes; recombinant human or mouse leptin, species depends on the experiment
leptin concentration at which 125I-leptin degradation saturated (LSR): ≥ 10 ng/mL
LSR mRNA levels (Northern blots) (LSR mRNA): did not increase mRNA levels significantly
plasma leptin concentrations [1]: 3.25 ± 0.03 ng/mL
